Data set [1] concerns the target T1, RpoA (RNAP alpha subunit), untagged (Agrobacterium tumefaciens) (UniProt P0A4E3).
T1 sequence: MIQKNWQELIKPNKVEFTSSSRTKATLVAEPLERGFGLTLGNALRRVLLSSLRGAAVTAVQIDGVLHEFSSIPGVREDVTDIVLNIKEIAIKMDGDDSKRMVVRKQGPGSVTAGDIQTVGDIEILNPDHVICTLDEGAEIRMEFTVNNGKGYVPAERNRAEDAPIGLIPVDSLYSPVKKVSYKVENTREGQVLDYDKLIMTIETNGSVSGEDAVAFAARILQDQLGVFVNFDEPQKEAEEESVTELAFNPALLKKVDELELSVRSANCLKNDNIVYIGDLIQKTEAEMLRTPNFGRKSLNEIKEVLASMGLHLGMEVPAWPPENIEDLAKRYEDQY
Kind of data set: cell_activity. As to conditions: pPS1.3 in E. coli MC4100(pSY215) with VirGcon; vector control 3; indirect reporter.

Data set [2] deals with T2, RpoA delta C-terminal 8 (residues 1-328) deletion of 329-336 (Agrobacterium tumefaciens) (UniProt P0A4E3).
T2 sequence: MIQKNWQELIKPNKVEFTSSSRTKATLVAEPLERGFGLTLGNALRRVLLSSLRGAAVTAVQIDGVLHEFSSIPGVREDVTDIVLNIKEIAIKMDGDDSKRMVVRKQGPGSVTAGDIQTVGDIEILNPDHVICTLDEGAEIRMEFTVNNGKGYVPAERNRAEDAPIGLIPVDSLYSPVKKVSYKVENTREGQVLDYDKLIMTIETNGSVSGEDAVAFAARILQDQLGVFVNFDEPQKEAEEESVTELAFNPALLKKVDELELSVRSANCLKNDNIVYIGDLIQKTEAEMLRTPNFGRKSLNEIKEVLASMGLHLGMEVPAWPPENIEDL
Kind of data set: cell_activity. As to conditions: pAD8 in E. coli MC4100(pSY215) with VirGcon; vector control 3; indirect reporter.

Data set [3] concerns the target T3, E. coli RNA polymerase β subunit (Escherichia coli, UniProt P0A8V2 1-1342).
T3 construct: also called E. coli β
The data set is described as follows: in vitro reconstitution of RNAP, SDS-PAGE (FIG. 4A).

The target of data set [4] is T4, E. coli RNA polymerase β′ subunit (Escherichia coli, UniProt P0A8T7 1-1407).
T4 construct: also called E. coli β′
T4 sequence (P0A8T7 whole entry): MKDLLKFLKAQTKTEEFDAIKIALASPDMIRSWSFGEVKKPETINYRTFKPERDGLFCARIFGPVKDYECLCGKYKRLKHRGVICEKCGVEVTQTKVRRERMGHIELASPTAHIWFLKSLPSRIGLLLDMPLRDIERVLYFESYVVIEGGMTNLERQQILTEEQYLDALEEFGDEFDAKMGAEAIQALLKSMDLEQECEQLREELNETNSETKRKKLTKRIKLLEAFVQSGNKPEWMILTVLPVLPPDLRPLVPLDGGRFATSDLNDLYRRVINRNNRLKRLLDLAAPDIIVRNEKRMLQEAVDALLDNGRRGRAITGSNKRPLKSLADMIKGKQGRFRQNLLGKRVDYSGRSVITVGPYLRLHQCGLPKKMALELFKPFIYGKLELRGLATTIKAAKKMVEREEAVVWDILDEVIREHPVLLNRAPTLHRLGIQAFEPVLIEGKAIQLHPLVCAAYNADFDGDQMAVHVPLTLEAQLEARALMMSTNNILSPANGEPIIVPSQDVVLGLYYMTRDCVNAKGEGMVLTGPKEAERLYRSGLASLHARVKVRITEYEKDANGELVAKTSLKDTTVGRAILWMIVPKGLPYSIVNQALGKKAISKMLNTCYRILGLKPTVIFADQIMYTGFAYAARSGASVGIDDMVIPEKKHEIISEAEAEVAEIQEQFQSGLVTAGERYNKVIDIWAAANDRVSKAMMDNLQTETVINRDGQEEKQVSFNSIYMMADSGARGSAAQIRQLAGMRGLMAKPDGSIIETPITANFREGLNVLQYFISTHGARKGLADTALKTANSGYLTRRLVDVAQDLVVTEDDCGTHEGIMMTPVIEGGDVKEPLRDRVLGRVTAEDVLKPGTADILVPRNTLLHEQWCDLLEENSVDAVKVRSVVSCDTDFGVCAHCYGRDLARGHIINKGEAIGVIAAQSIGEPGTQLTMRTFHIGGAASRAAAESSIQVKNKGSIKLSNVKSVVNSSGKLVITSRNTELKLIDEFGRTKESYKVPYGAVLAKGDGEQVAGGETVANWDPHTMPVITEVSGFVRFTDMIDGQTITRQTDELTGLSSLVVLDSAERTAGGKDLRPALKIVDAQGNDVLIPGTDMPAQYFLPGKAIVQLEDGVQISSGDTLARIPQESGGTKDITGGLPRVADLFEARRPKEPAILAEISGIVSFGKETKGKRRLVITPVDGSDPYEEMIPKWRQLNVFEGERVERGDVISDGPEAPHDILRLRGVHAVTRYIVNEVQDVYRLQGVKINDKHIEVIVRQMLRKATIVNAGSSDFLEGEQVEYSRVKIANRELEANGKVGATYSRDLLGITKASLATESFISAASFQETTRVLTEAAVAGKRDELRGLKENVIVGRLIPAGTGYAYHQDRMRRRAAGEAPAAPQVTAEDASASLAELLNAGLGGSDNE
The data set is described as above.

In data set [5] the target is T5, E. coli RNA polymerase σ70 subunit (Escherichia coli, UniProt P00579 1-613).
T5 construct: also called σ^70
T5 sequence (P00579 whole entry): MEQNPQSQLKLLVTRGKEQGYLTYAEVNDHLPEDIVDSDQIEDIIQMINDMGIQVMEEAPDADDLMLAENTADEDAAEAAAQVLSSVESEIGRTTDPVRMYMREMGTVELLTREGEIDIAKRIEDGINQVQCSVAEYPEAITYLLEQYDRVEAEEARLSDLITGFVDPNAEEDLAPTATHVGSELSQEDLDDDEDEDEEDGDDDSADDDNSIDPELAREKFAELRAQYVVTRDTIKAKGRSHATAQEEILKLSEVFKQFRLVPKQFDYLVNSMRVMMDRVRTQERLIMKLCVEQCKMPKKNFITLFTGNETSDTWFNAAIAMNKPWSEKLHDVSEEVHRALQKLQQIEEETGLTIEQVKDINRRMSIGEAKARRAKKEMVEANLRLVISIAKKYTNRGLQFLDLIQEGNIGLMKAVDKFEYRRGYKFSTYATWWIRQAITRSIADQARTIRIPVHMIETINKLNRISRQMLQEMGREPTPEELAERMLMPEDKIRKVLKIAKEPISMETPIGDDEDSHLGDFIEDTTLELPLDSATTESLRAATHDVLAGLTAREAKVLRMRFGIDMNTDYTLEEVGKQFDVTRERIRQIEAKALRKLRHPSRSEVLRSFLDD
The description is as above.

Experimental findings from patent publication US6764837 (BOARD OF TRUSTEES OF THE UNIVERSITY OF ARKANSAS, dated 2004) are described below.

T3 sequence (P0A8V2 whole entry): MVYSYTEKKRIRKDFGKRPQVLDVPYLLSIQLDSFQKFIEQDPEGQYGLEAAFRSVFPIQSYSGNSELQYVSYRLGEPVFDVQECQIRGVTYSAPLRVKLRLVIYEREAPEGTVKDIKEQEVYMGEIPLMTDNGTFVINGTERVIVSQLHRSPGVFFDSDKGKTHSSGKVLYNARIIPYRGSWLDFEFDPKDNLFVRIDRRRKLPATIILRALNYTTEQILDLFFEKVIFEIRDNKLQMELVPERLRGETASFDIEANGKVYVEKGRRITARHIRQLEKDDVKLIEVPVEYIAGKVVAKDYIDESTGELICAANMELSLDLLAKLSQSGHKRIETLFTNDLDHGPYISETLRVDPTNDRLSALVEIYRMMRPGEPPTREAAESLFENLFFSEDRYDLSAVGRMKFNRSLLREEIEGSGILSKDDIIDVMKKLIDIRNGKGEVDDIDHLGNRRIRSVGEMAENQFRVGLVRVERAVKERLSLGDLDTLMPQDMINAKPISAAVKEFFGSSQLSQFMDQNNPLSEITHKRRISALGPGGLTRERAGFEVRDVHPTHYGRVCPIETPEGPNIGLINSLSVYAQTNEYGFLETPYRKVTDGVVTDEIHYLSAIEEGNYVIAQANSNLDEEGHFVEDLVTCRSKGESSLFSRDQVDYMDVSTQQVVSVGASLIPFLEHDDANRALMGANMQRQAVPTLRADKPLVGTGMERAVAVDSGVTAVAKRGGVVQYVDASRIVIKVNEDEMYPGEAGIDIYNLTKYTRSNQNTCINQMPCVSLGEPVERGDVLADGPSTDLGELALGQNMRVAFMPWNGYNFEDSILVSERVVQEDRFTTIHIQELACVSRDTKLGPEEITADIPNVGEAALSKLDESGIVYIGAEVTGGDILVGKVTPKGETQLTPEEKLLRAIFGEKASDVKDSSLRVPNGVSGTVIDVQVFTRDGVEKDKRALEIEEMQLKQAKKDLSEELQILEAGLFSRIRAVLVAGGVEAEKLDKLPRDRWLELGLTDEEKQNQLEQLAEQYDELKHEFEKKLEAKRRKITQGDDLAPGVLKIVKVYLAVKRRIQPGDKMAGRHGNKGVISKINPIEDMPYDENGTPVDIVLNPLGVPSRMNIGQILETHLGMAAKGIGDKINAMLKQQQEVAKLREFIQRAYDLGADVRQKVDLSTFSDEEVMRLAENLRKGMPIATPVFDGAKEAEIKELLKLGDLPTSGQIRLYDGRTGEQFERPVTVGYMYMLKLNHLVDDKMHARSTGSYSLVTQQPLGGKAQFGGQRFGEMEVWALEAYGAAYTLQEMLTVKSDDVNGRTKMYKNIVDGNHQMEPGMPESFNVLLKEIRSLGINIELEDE

virBp::lacZ reporter promoter: the activity in data set [1] stood at 140 Miller units; in data set [2], 4 Miller units.

B1: His-tagged RpoA (α subunit of RNA polymerase) of A. tumefaciens (other)
chain: MIQKNWQELIKPNKVEFTSSSRTKATLVAEPLERGFGLTLGNALRRVLLSSLRGAAVTAVQIDGVLHEFSSIPGVREDVTDIVLNIKEIAIKMDGDDSKRMVVRKQGPGSVTAGDIQTVGDIEILNPDHVICTLDEGAEIRMEFTVNNGKGYVPAERNRAEDAPIGLIPVDSLYSPVKKVSYKVENTREGQVLDYDKLIMTIETNGSVSGEDAVAFAARILQDQLGVFVNFDEPQKEAEEESVTELAFNPALLKKVDELELSVRSANCLKNDNIVYIGDLIQKTEAEMLRTPNFGRKSLNEIKEVLASMGLHLGMEVPAWPPENIEDLAKRYEDQY
notes: not shown: N-terminal His tag from a pQE vector (Qiagen)
Regarding B1, the binding result in data set [3], in data set [4] and in data set [5] was “binds” in each case.
